Broadly, the Km is the concentration of substrate that gives half-maximal velocity. The kcat is the maximal rate divided by the concentration of active sites. The kcat/Km is the second-order rate constant that governs catalysis at low substrate concentration.

Results on three molecules are retold here after paper PMC6846668 (Nucleic Acids Research, 2019).

One data set addresses T1, PolIV (Escherichia coli, UniProt Q47155).
T1 sequence (Q47155 1-351): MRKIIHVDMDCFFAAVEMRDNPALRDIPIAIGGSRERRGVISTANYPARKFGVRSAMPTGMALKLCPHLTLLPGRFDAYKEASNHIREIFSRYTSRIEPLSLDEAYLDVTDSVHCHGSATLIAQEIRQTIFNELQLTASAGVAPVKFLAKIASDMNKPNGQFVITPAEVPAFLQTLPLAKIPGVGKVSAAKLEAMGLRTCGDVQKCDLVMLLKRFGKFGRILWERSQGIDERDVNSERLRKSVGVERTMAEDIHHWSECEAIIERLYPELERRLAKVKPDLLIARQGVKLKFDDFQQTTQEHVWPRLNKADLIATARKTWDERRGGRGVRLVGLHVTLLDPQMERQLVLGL
The experiment in a line: primer extension, gel. As to conditions: 6FAM primer/template, 2.5 mM MnCl2, pH 8.0, 37°C. It counts as biochemical.

Substrate in data set [1]: Nc1ccn([C@@H]2O[C@H](COP(=O)(O)OP(=O)(O)OP(=O)(O)O)[C@@H](O)[C@H]2O)c(=O)n1
Description: primer extension, Lineweaver-Burk. It counts as biochemical, Mycolicibacterium smegmatis. As to conditions: 6FAM 15mer primer/50mer template, 2.5 mM MnCl2, pH 8.0, 37°C.

With `Nc1ccn([C@H]2C[C@H](O)[C@@H](COP(=O)(O)OP(=O)(O)OP(=O)(O)O)O2)c(=O)n1` [dCTP], the “primer extension, gel” value at PolIV is on record as “mutations did not show a significant difference in the ability of PolIV to incorporate dCTP”.

B1: MsDpo4 (Mycolicibacterium smegmatis MC2 155) (protein)
chain: MTKWVLHVDLDQFLASVELRRRPDLRGQPVIVGGSGDPSEPRKVVTCASYEAREFGVHAGMPLRAAARRCPDATFLPSDPAAYDEASEQVMGLLRDLGHPLEVWGWDEAYLGADLPDESDPVEVAERIRTVVAAETGLSCSVGISDNKQRAKVATGFAKPAGIYVLTEANWMTVMGDRPPDALWGVGPKTTKKLAAMGITTVADLAVTDPSVLTTAFGPSTGLWLLLLAKGGGDTEVSSEPWVPRSRSHVVTFPQDLTERREMDSAVRDLALQTLAEIVEQGRIVTRVAVTVRTSTFYTRTKIRKLPAPSTDAGQIVDTALAVLDQFELDRPVRLLGVRLELAMDDVPRPAVTAGT
As to B1, in data set [1], the Km was 55.3 ± 4.0 µM, the kcat is 0.011 ± 0.00117 s⁻¹ and the kcat/Km was 167 ± 16.7 M⁻¹ s⁻¹.

B2: MsDpo4 (Mycolicibacterium smegmatis MC2 155; L14Y) (protein)
chain: MTKWVLHVDLDQFYASVELRRRPDLRGQPVIVGGSGDPSEPRKVVTCASYEAREFGVHAGMPLRAAARRCPDATFLPSDPAAYDEASEQVMGLLRDLGHPLEVWGWDEAYLGADLPDESDPVEVAERIRTVVAAETGLSCSVGISDNKQRAKVATGFAKPAGIYVLTEANWMTVMGDRPPDALWGVGPKTTKKLAAMGITTVADLAVTDPSVLTTAFGPSTGLWLLLLAKGGGDTEVSSEPWVPRSRSHVVTFPQDLTERREMDSAVRDLALQTLAEIVEQGRIVTRVAVTVRTSTFYTRTKIRKLPAPSTDAGQIVDTALAVLDQFELDRPVRLLGVRLELAMDDVPRPAVTAGT
Turning to B2, in data set [1], the Km amounted to 59.54 ± 13.4 µM, the kcat was found to be 0.00167 ± 0.000167 s⁻¹ and the kcat/Km was determined as 26.7 ± 5 M⁻¹ s⁻¹.
